US20130046257A1, “METHODS OF USING AGENTS THAT MODULATE CLAUDIN EXPRESSION” (priority 2010, published 2013)

Tested on: connexin-26 (GJB2)
Experiment: qPCR of connexin-26 in claudin-1 siRNA transfected PHK
Assay type: cell-based, human
Settings: n=6
Method: QPCR was performed using the iScript™ cDNA Synthesis kit and iQ™ SYBER Green Supermix assay system (Bio-Rad Laboratories). All PCR amplifications were carried out in triplicate on an iQ5 Multicolor real-time PCR detection system (Bio-Rad). Primers were designed and synthesized by Integrated
DNA Technologies (Table 1). Relative gene expression was calculated by using the 2^−ΔΔCt method. Livak and Schmittgen, “Analysis of Relative Gene Expression Data Using Real-Time Quantitative PCR and the 2(-Delta Delta C(T)) Method,” Methods 25:402-8 (2001), which is hereby incorporated by reference in its entirety. The normalized Ct value of each sample was calculated using GAPDH as an endogenous control gene.

B1: CLDN1 siRNA: claudin-1 siRNA (h), Santa Cruz; a pool of 3 separate strands, SEQ ID NO: 10-15 (nucleic acid)
chain 1: UACAUAGGCAUAGUUCAUGNN
chain 2: CAUGAACUAUGCCUAUGUANN
chain 3: AACGUAUGCAGUUAAUUCCNN
chain 4: GGAAUUAACUGCAUACGUUNN
chain 5: UGAAGAUCUAUGUAUGUGGNN
chain 6: CCACAUACAUAGAUCUUCANN
modifications: chemistry not given here
- connexin-26 (GJB2) expression, fold over control: 1.7±0.8 fold
